Source: doi:10.1101/2021.10.18.464377
Values joined by “and” are separate entries in the source; they are usually repeats but may differ in a detail not shown here. Equal values may be shown once.

Biological target: Synaptotagmin 2 K60A expressed in PC12 or HEK 293 cells (UniProt P29101)
Assay: immunostaining of cells or tissue

Chain of UniProt P29101 (P29101 whole entry K60A): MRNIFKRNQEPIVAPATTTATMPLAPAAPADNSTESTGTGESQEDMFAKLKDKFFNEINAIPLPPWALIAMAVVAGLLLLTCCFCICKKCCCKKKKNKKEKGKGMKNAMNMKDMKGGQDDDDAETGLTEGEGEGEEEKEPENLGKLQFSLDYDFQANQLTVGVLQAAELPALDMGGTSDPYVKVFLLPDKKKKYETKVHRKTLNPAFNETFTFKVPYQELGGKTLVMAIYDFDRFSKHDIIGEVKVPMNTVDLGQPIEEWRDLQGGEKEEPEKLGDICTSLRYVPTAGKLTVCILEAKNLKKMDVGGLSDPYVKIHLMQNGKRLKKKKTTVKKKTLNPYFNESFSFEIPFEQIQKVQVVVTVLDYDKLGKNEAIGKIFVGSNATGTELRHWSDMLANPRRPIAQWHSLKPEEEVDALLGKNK

For “Botulinum neurotoxin serotype B (B1 Okra strain) with non-toxic accessory proteins (complex)”, the decrease of BoNT/B binding against SYT2-WT was 64% and 69%.
